Experimental data as given in doi:10.1101/517771.

Molecular target: FLAG-BLM (Bloom's Syndrome helicase) (human) (UniProt P54132)
Sequence of UniProt P54132 (P54132 whole entry): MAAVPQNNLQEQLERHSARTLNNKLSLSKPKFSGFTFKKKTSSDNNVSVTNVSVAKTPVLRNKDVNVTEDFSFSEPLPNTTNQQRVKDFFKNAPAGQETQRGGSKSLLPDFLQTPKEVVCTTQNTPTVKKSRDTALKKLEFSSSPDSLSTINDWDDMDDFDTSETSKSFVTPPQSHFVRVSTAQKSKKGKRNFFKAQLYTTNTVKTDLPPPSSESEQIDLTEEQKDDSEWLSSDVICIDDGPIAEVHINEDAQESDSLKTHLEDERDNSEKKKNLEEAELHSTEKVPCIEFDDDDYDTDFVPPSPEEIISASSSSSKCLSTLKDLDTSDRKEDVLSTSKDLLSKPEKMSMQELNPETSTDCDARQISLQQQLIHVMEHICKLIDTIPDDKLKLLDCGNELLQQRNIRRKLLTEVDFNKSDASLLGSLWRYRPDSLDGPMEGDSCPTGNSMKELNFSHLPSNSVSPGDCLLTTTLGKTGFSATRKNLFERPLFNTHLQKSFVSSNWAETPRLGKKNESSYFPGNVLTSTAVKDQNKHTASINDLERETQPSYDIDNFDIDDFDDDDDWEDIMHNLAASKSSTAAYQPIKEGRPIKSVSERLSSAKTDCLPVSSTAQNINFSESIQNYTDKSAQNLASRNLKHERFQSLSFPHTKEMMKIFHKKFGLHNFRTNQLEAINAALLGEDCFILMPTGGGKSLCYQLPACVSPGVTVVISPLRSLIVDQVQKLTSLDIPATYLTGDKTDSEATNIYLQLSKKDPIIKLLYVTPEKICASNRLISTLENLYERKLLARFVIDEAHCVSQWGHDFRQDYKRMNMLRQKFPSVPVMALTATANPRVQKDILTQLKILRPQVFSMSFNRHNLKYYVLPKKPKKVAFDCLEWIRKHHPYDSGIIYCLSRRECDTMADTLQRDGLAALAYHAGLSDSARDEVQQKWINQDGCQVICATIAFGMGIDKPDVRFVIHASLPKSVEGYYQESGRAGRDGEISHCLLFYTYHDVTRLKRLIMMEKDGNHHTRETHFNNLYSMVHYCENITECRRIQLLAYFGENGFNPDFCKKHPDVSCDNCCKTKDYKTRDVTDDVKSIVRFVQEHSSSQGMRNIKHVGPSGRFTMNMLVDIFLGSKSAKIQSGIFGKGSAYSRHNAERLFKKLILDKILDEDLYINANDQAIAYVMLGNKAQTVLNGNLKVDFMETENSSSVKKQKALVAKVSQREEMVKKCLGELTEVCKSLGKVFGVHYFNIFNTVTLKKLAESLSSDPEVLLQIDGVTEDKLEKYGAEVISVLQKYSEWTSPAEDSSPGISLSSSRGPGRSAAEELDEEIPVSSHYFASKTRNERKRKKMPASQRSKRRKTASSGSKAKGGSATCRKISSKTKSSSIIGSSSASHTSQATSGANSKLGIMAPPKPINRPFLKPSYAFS

- fold decrease in BLM/EXO1 resection processivity after addition of pRPA: 3 fold
- fraction of BLM/DNA2 molecules that stopped resecting DNA upon addition of pRPA: 30%
Substance: phosphorylated human RPA (pRPA) (from UniProt P27694 1-616; P15927 1-270) (complex)
